Molecular target: human DNMT1 RFTS domain, residues 351–600 (human) (UniProt P26358)
Assay: ITC; hRFTS and ubiquitylated hPAF15_(2-30) analogs; VP-ITC; 10 mM HEPES-NaOH (pH 7.5), 150 mM NaCl, 10 μM zinc acetate; one-site model; c value 10,000 for hPAF15_(2-30)Ub2

Chain of human DNMT1 RFTS domain, residues 351–600 (human) (P26358 351-600): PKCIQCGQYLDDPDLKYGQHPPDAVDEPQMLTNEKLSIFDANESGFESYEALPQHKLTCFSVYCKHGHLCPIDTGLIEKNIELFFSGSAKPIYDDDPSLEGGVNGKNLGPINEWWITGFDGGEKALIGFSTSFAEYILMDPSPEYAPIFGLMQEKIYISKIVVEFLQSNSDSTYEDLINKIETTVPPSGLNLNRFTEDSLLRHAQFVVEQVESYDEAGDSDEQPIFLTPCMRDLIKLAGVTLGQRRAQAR

Kd | stoichiometry N | Substance
1200 nM |  | hPAF15_(2-30)K15Ub, disulfide-linked mono-ubiquitylated analog (from UniProt Q15004 2-30)
1.4 nM | 1 | hPAF15_(2-30)Ub2, disulfide-linked dual mono-ubiquitylated analog of human PAF15 (residues 2–30) (from UniProt Q15004 2-30)

Reference: PMC7060239
